This note sets out measurements from publication PMC3237003 (Toxins, 2011).

Assay [1] concerns the target T1, staphylococcal enterotoxin B (SEB) (Staphylococcus aureus, strain , UniProt P01552).
T1 construct: source: bought: Toxin Technology, Inc
As to the kind of experiment: Luminex direct binding (microsphere fluorescence immunoassay). As to conditions: both partners purified.

The target in assay [2] is bovine serum albumin (BSA) (Bos taurus, UniProt P02769). Described as above. The note with it: both partners purified.
Chain of bovine serum albumin (BSA) (P02769 25-607): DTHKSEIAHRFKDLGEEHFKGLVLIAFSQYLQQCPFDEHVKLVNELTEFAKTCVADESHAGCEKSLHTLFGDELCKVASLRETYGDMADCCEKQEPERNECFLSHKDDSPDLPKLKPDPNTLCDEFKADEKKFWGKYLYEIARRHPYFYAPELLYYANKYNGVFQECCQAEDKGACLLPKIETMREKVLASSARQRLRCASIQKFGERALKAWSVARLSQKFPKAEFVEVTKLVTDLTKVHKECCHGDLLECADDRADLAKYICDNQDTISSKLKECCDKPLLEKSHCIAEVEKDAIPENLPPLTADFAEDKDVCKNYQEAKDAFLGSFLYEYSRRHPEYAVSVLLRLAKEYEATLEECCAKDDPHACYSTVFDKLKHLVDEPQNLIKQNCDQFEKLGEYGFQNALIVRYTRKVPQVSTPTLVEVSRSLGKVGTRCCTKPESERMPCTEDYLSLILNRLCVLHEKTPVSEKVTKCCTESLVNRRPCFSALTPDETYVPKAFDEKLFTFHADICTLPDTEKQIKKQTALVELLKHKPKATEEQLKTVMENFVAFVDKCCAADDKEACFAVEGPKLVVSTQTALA

T1 sequence (P01552 28-266): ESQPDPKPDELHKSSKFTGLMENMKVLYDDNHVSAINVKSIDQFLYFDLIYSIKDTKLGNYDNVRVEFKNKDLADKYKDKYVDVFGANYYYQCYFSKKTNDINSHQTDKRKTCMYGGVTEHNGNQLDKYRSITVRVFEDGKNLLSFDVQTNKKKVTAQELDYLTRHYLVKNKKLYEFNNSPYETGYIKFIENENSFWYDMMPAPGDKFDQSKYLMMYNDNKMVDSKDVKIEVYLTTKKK

B1: sdAb Abr5 (VHH)
VHH: EVQLQASGGGLVQAGGSLRLSCVVSGLSVGLNPVAWYRQAPGQQRDWVARMSMRGLTDYPDSLKGRAIISRDNAKNTVSLQMDSLKPEDTAVYFCKVGLSYWGQGTQVTVSS
notes: source: E. coli Rosetta, soluble sdAb expression vector
Regarding B1, the binding result in assay [1] and in assay [2] was “no binding” in each case.

B2: sdAb Abr1 (VHH)
VHH: EVQLQASGGGLVQAGGSLRLSCAASGSDGSLEIMGWYRQAPGKQRELVARATSGGLKNYADSVKGRFTISGDLDKNTVYLQMNSLQPEDTGVYVCHLGVVASTYRDYWGQGTQVTVSS
notes: as for B1
For the molecule B2, the binding result in assay [1] and in assay [2] was “no binding” in each case.

B3: sdAb Abr2 (VHH)
VHH: DVQLQASGGGLVQAGGSLVLSCTASGRSVSSLAMGWLRQVPGKERELVGSISLSGGRTYYADSMKGRFTISKDNAKNTVALQMNSLRPEDTAVYYCAARDAARDYAPLNFDTWGQGTQVTVSS
notes: as for B1
As for B3, the binding result in assay [1] and in assay [2] was “no binding” each time.
